Assay [1] has as its target purified soluble 8his-tagged BG505-QES.i03.c01 SOSIP (HIV-1 strain BG505). Briefly: ELISA, purified 8his SOSIP on nickel-coated plate.
The target in assay [2] is purified soluble 8his-tagged BG505 SOSIP.664 (T332N), wildtype (HIV-1 strain BG505). Briefly: ELISA, his-tagged SOSIP on nickel-coated plate, peroxidase anti-human IgG-Fc, OD 630 nm.
In assay [3] the target is 25711 Env I181L + V254T (QES.c02) (HIV-1 strain 25711). Briefly: flow cytometry titration on cells.
Assay [4] addresses BaL Env QES.i01 + I181L + V255M (QES.i01.c01) (HIV-1 strain BaL). Briefly: flow cytometry titration on cells.
Assay [5] addresses DU422 Env V181L + V254T + V255M (QES.c03) (HIV-1 strain DU422). Briefly: flow cytometry titration on cells.
For assay [6], the target named is Q769.d22 Env QES.i03 + V255M (QES.i03.V255M) (HIV-1 strain Q769.d22). Briefly: flow cytometry titration on cells.
For assay [7], the target named is Q842.d12 Env QES.i04 + I181L (QES.i04.I181L) (HIV-1 strain Q842.d12). Briefly: flow cytometry titration on cells.
Assay [8] has as its target BaL Env T49D + P124D + I595M (BaL-QES.i01) (HIV-1 strain BaL). Briefly: flow cytometry titration on Expi293F cells.
In assay [9] the target is BaL Env T49D + P124D + L663N (BaL-QES.i02) (HIV-1 strain BaL). Briefly: flow cytometry titration on Expi293F cells.
Assay [10] has as its target Q769.d22 Env A200E + F223Y + I595M (Q769-QES.i03) (HIV-1 strain Q769.d22). Briefly: flow cytometry titration on Expi293F cells.
For assay [11], the target named is Q842.d12 Env P124D + F223Y + R557Q + I595M (Q842-QES.i04) (HIV-1 strain Q842.d12). Briefly: flow cytometry titration on Expi293F cells.
The target of assay [12] is BaL Env T49D + P124D + I595M (BaL-QES.i01) (HIV-1 strain BaL). Briefly: apparent KD, flow cytometry titration on Expi293F cells.
For assay [13], the target named is BaL Env T49D + P124D + L663N (BaL-QES.i02) (HIV-1 strain BaL). Described as above.
Assay [14] addresses BaL Env gp160 wildtype (HIV-1 strain BaL). The assay is described as above.
Assay [15] deals with Q769.d22 Env A200E + F223Y + I595M (Q769-QES.i03) (HIV-1 strain Q769.d22). Described as above.
Assay [16] addresses Q769.d22 Env gp160 wildtype (HIV-1 strain Q769.d22). The description is as above.
The target of assay [17] is Q842.d12 Env P124D + F223Y + R557Q + I595M (Q842-QES.i04) (HIV-1 strain Q842.d12). The description is as above.
In assay [18] the target is Q842.d12 Env gp160 wildtype (HIV-1 strain Q842.d12). Described as above.
Assay [19] concerns the target DU422 gp140 (surface-displayed ectodomain) (HIV-1 strain DU422). Briefly: apparent dissociation constant, flow cytometry on Expi293F cells.
For assay [20], the target named is purified soluble 8his-tagged BG505 SOSIP.664 (T332N), wildtype (HIV-1 strain BG505). Briefly: ELISA, his-tagged SOSIP on copper-coated plate, peroxidase anti-human IgG-Fc, OD 630 nm.
Assay [21] deals with purified soluble 8his-tagged BG505-QES.i03.c01 SOSIP (HIV-1 strain BG505). The description is as above.
The target in assay [22] is BaL Env gp160 wildtype (HIV-1 strain BaL). Briefly: flow cytometry, 2 nM PG16, transfected Expi293F cells, percent of cells in the positive gate (Negative: 0.5 %, 0.5 %).
The next assay addresses C331I. Described as above.
For the next assay, the target named is D133W. Described as above.
The target of the next assay is E634A. Described as above.
For the next assay, the target named is F159V. The description is as above.
A further assay addresses F223L. The description is as above.
A further assay concerns the target F93G. The assay is described as above.
The next assay deals with I201M. Described as above.
The next assay deals with I251S. Described as above.
The target in another assay is I491S. Described as above.
In a further assay the target is I686R. The assay is described as above.
The target in the next assay is K617Q. Described as above.
Another assay addresses Q540V. The description is as above.
A further assay concerns the target S199C. The description is as above.
Another assay deals with T248E. The assay is described as above.
Another assay deals with T319K. Described as above.
In a further assay the target is V208G. The description is as above.
Another assay has as its target V36R. The assay is described as above.
For the next assay, the target named is W338A. Described as above.
A further assay addresses W614A. Described as above.
The next assay addresses Y191I. Described as above.
Assay [23] concerns the target Q842.d12 Env gp160 wildtype (HIV-1 strain Q842.d12). Briefly: flow cytometry titration, transfected cells expressing the Env.
Assay [24] concerns the target Q842.d12 Env P124D + F223Y + R557Q + I595M (Q842-QES.i04) (HIV-1 strain Q842.d12). Briefly: flow cytometry, Expi293F cells.

The results in this text go back to patent US20200206342A1.

CD4-IgG2 (Fc fusion): the fold reduction of apparent affinity against wildtype in assay [1] turned out to be 5.5 fold. The EC50 (read off the curve) in [2] stood at 0.08 mg/L.
With PG16 (antibody), the fold more PG16 bound at saturation against wildtype in [3], in assay [4], in assay [5], in assay [6] and in assay [7] was under 5 fold throughout. The fold increase in PG16 binding at saturation against wildtype in [8] and in [9] was 1.6 fold in each case. For the same substance, in assay [10], the fold higher binding at saturation against wildtype turned out to be 2.7 fold. In addition, the fold increase in PG16 binding signal at saturation against wildtype in [11] was 2.4 fold. In addition, the Kd came to 1.2 nM in assay [12]; 1.4 nM in [13]; 4 nM in assay [14]; 3.7 nM in assay [15]; 5 nM in [16]; 5 nM in [17]. In addition, the Kd in [18] stood at 3.4 nM; in assay [19] it was 5 nM. In addition, the EC50 (read off the curve) is 0.4 nM in assay [20] and 0.2 nM in assay [21]. Moreover, the percent positive cells (first of two replicates) in [22] came to 38%; in the assay with C331I, 1.4%; with D133W it was 16%; with E634A it was 11.1%; with F159V, 1.4%; with F223L, 11.2%. Besides, the percent positive cells (first of two replicates) with F93G was found to be 1.4%; in the assay with I201M, 29.5%; in the assay with I251S, 6.1%; in the assay with I491S it was 1.3%; in the assay with I686R, 5%; with K617Q, 15%. Also, the percent positive cells (first of two replicates) with Q540V stood at 2.4%; with S199C, 1.2%; with T248E, 1.1%; with T319K, 20.3%; with V208G, 21.6%; with V36R it was 2.1%. Further, the percent positive cells (first of two replicates) with W338A amounted to 1.3%; with W614A it was 1.2%; in the assay with Y191I it was 1.9%. In addition, the percent positive cells (second of two replicates) in assay [22] stood at 36.2%; in the assay with C331I, 1.9%; with D133W, 16%; in the assay with E634A, 9.3%; in the assay with F159V, 1.7%; with F223L it was 10.7%. In addition, the percent positive cells (second of two replicates) with F93G came out at 2.1%; in the assay with I201M, 29.8%; in the assay with I251S, 4.2%; with I491S, 2.1%; in the assay with I686R, 5.9%; with K617Q it was 14.8%. The percent positive cells (second of two replicates) was found to be 3% in the assay with Q540V; 1.6% with S199C; 2% with T248E; 18.8% with T319K; 22.5% with V208G; 2.6% with V36R. The percent positive cells (second of two replicates) with W338A was 2%; with W614A it was 2.1%; with Y191I it was 1.9%.
In [23], PGT145 (antibody) showed an EC50 (read off the curve) of 0.5 nM.
With VRC01 (antibody), the EC50 (read off the curve) in [20] and in [21] was 1 nM throughout.
“soluble CD4 sCD4-183 (domains D1-D2) (from UniProt P01730 26-208) (receptor)”: the fold increase in soluble CD4 binding against wildtype in assay [24] turned out to be 3 fold. For the same substance, in [19], the Kd came out at 18 nM.
